Assay results as given in the supplement of paper PMC9112550, “Optimization of the antimicrobial peptide Bac7 by deep mutational scanning” (BMC Biology, 2022).

test system: Escherichia coli TOP10; experiment: shrunken log2 fold change of peptide-encoding DNA abundance (4.5 h post-induction vs induction); higher = less antimicrobial activity (less host growth inhibition); conditions: time post-induction: 4.5 h; library: site-saturation at positions 5, 18, 19, 20
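Also: peptides expressed intracellularly from a pBAD plasmid library in pooled LB shake-flask culture, induced with 0.3% L-arabinose, DNA abundance read by NGS, three biological replicates, DESeq2 with apeglm shrinkage.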

Compared with RRIRDRPPRLPRPRPRPTSYPRP, RRIRGRPPRLPRPRPRPPGHPRP is higher in “shrunken log2 fold change” value: -0.189 for the first, 0.772 for the second.

Compared with RRIRRRPPRLPRPRPRPFTVPRP, RRIRVRPPRLPRPRPRPDAAPRP is higher in “shrunken log2 fold change” value: -0.118 for the first, 0.976 for the second.

RRIRSRPPRLPRPRPRPVHKPRP and RRIRNRPPRLPRPRPRPWHYPRP are within 0.2 log units of each other in “shrunken log2 fold change” value: -0.151 for the first, -0.25 for the second.

Compared with RRIRFRPPRLPRPRPRPVEYPRP, RRIRDRPPRLPRPRPRPTTKPRP is higher in “shrunken log2 fold change” value: -0.109 for the first, 0.0962 for the second.

RRIRERPPRLPRPRPRPFLGPRP and RRIRGRPPRLPRPRPRPWFPPRP are within 0.2 log units of each other in “shrunken log2 fold change” value: -0.284 for the first, -0.132 for the second.

Going from RRIRVRPPRLPRPRPRPWGVPRP to RRIRWRPPRLPRPRPRPYTAPRP, the “shrunken log2 fold change” value falls from -0.15 to -0.611.

Compared with RRIRSRPPRLPRPRPRPASRPRP, RRIRYRPPRLPRPRPRPPRSPRP is lower in “shrunken log2 fold change” value: 0.189 for the first, -0.148 for the second.

Compared with RRIRRRPPRLPRPRPRPAWRPRP, RRIRVRPPRLPRPRPRPYKEPRP is lower in “shrunken log2 fold change” value: 0.504 for the first, 0.0231 for the second.

Going from RRIRARPPRLPRPRPRPTCFPRP to RRIRCRPPRLPRPRPRPAIAPRP, the “shrunken log2 fold change” value falls from 0.57 to 0.165.

First: RRIRNRPPRLPRPRPRPNTFPRP
Second: RRIRKRPPRLPRPRPRPYNPPRP
The “shrunken log2 fold change” value of the first is higher: -0.332 for the first, -1.13 for the second.

Compared with RRIRGRPPRLPRPRPRPFIFPRP, RRIRGRPPRLPRPRPRPNRHPRP is lower in “shrunken log2 fold change” value: 0.516 for the first, 0.231 for the second.

RRIRSRPPRLPRPRPRPSWVPRP and RRIRMRPPRLPRPRPRPHGYPRP are within 0.2 log units of each other in “shrunken log2 fold change” value: 0.0183 for the first, 0.185 for the second.

RRIRNRPPRLPRPRPRPQYAPRP and RRIRCRPPRLPRPRPRPNRIPRP are within 0.2 log units of each other in “shrunken log2 fold change” value: -0.0234 for the first, -0.111 for the second.

RRIRTRPPRLPRPRPRPFWTPRP and RRIRDRPPRLPRPRPRPWGPPRP are within 0.2 log units of each other in “shrunken log2 fold change” value: -0.258 for the first, -0.0594 for the second.

RRIRWRPPRLPRPRPRPQWQPRP and RRIRKRPPRLPRPRPRPPYNPRP are within 0.2 log units of each other in “shrunken log2 fold change” value: 0.0209 for the first, -0.149 for the second.

RRIRRRPPRLPRPRPRPCDKPRP and RRIRKRPPRLPRPRPRPVPCPRP are within 0.2 log units of each other in “shrunken log2 fold change” value: -0.00163 for the first, 0.0663 for the second.

RRIRWRPPRLPRPRPRPYYYPRP and RRIRPRPPRLPRPRPRPQIKPRP are within 0.2 log units of each other in “shrunken log2 fold change” value: -0.473 for the first, -0.282 for the second.

RRIRERPPRLPRPRPRPLWEPRP and RRIRRRPPRLPRPRPRPYTEPRP are within 0.2 log units of each other in “shrunken log2 fold change” value: -0.281 for the first, -0.452 for the second.

RRIRHRPPRLPRPRPRPCMDPRP and RRIRRRPPRLPRPRPRPHQVPRP are within 0.2 log units of each other in “shrunken log2 fold change” value: -0.0981 for the first, 0.1 for the second.

RRIRTRPPRLPRPRPRPCIRPRP and RRIRRRPPRLPRPRPRPIDKPRP are within 0.2 log units of each other in “shrunken log2 fold change” value: -0.0289 for the first, -0.0465 for the second.

Compared with RRIRSRPPRLPRPRPRPSNMPRP, RRIRNRPPRLPRPRPRPNIKPRP is higher in “shrunken log2 fold change” value: -1.05 for the first, -0.641 for the second.

First: RRIRKRPPRLPRPRPRPNLMPRP
Second: RRIRARPPRLPRPRPRPGFWPRP
The “shrunken log2 fold change” value of the first is higher: 3.86 for the first, 0.682 for the second.

RRIRYRPPRLPRPRPRPCHQPRP and RRIRMRPPRLPRPRPRPNDFPRP are within 0.2 log units of each other in “shrunken log2 fold change” value: -0.00822 for the first, 0.0282 for the second.

Compared with RRIRKRPPRLPRPRPRPDCYPRP, RRIRLRPPRLPRPRPRPIYEPRP is lower in “shrunken log2 fold change” value: 0.012 for the first, -0.291 for the second.

First: RRIRRRPPRLPRPRPRPKHWPRP
Second: RRIRSRPPRLPRPRPRPQTPPRP
The “shrunken log2 fold change” value of the first is lower: 0.334 for the first, 0.6 for the second.

First: RRIRLRPPRLPRPRPRPGMGPRP
Second: RRIRQRPPRLPRPRPRPEVEPRP
The “shrunken log2 fold change” value of the first is higher: 0.241 for the first, 0.0391 for the second.

First: RRIRERPPRLPRPRPRPNSNPRP
Second: RRIRLRPPRLPRPRPRPAMSPRP
The “shrunken log2 fold change” value of the first is lower: -0.828 for the first, 0.019 for the second.

RRIRERPPRLPRPRPRPCDEPRP and RRIRWRPPRLPRPRPRPQYVPRP are within 0.2 log units of each other in “shrunken log2 fold change” value: 0.011 for the first, 0.00889 for the second.

RRIRIRPPRLPRPRPRPCVGPRP and RRIRTRPPRLPRPRPRPQFEPRP are within 0.2 log units of each other in “shrunken log2 fold change” value: -0.164 for the first, 0.0219 for the second.

RRIRMRPPRLPRPRPRPNWMPRP and RRIRDRPPRLPRPRPRPFQIPRP are within 0.2 log units of each other in “shrunken log2 fold change” value: -0.0131 for the first, 0.0155 for the second.

First: RRIRLRPPRLPRPRPRPRTTPRP
Second: RRIRDRPPRLPRPRPRPYWMPRP
The “shrunken log2 fold change” value of the first is higher: 0.182 for the first, -0.541 for the second.

RRIRIRPPRLPRPRPRPHQCPRP and RRIRYRPPRLPRPRPRPSKFPRP are within 0.2 log units of each other in “shrunken log2 fold change” value: -0.331 for the first, -0.299 for the second.

Going from RRIRKRPPRLPRPRPRPMAAPRP to RRIRSRPPRLPRPRPRPDTYPRP, the “shrunken log2 fold change” value falls from 0.751 to -0.713.

Compared with RRIRERPPRLPRPRPRPQFVPRP, RRIRKRPPRLPRPRPRPPQKPRP is higher in “shrunken log2 fold change” value: -0.312 for the first, 0.682 for the second.

First: RRIRERPPRLPRPRPRPFWFPRP
Second: RRIRTRPPRLPRPRPRPVPVPRP
The “shrunken log2 fold change” value of the first is lower: -0.303 for the first, 0.0547 for the second.

First: RRIRIRPPRLPRPRPRPSDEPRP
Second: RRIRSRPPRLPRPRPRPKGLPRP
The “shrunken log2 fold change” value of the first is lower: -0.698 for the first, -0.0223 for the second.

RRIRRRPPRLPRPRPRPFFRPRP and RRIRPRPPRLPRPRPRPTCSPRP are within 0.2 log units of each other in “shrunken log2 fold change” value: 0.354 for the first, 0.265 for the second.

With RRIRVRPPRLPRPRPRPKPKPRP the “shrunken log2 fold change” value was 0.312.
